The text below walks through data of doi:10.1101/463968, “Structure of a bacterial ATP synthase” (bioRxiv, 2018).

Assay in all cases: cryo-EM structure; intact Bacillus PS3 ATP synthase in GDN, three rotational states at 2.9, 2.9 and 3.1 Å; focused refinement of the membrane-embedded region at 3.3 Å
Data set [1] deals with T1, Bacillus PS3 ATP synthase subunit γ (Bacillus PS3, UniProt P09222 5-286).
T1 construct: ATP synthase subunit gamma, Bacillus PS3; source: E. coli strain DK8, plasmid pTR-ASDS; purified as part of the whole ATP synthase (GDN, HisTrap HP, Superose 6)
T1 sequence (P09222 5-286): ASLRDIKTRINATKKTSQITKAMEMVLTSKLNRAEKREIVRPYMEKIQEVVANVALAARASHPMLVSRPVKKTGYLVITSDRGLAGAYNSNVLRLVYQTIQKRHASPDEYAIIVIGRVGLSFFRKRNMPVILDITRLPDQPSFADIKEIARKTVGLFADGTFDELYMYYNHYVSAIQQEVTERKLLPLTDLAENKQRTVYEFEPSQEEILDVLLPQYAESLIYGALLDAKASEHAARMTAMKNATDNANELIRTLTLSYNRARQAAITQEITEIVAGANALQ
As to conditions: both partners purified.

Data set [2] addresses T2, Bacillus PS3 ATP synthase subunit α (Bacillus PS3, UniProt P09219 1-502).
T2 construct: ATP synthase subunit alpha, Bacillus PS3; three copies in the complex (α3β3γδε ab2c10); Part of the intact complex α3β3γδε ab2c10; also called αDP; source: E. coli strain DK8, plasmid pTR-ASDS; purified as part of the whole ATP synthase (GDN, HisTrap HP, Superose 6)
As to conditions: both partners purified.

Data set [3] deals with the molecule itself.

T2 sequence (P09219 whole entry): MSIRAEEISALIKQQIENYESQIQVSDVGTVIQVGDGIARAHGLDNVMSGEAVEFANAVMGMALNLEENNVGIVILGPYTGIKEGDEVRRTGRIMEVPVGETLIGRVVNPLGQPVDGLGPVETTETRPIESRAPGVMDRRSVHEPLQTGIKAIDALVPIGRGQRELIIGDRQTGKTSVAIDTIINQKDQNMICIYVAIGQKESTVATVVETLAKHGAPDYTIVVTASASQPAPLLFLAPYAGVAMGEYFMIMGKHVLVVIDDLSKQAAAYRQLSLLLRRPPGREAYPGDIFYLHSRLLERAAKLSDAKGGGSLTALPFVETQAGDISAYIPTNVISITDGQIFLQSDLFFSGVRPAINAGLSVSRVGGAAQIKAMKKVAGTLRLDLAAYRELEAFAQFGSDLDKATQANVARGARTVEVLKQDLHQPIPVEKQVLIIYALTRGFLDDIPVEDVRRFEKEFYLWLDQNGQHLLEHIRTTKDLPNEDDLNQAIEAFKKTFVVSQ

B1: Bacillus PS3 ATP synthase subunit ε (natural protein, UniProt P07678 1-132, looked up)
chain: MKTIHVSVVTPDGPVYEDDVEMVSVKAKSGELGILPGHIPLVAPLEISAARLKKGGKTQYIAVSGGFLEVRPDNVTILAQAAERAEDIDVLRAKARKSGRTPLQSQQDDIDFKRAELALKRAMNRLSVAEMK
notes: ATP synthase subunit epsilon, Bacillus PS3; source: E. coli strain DK8, plasmid pTR-ASDS; purified as part of the whole ATP synthase (GDN, HisTrap HP, Superose 6)
B1: the binding result in data set [1] and in data set [2] was “binds” each time.

B2: Bacillus PS3 ATP synthase subunit c (natural protein, UniProt P00845 1-72, looked up)
chain: MSLGVLAAAIAVGLGALGAGIGNGLIVSRTIEGIARQPELRPVLQTTMFIGVALVEALPIIGVVFSFIYLGR
notes: ATP synthase subunit c, Bacillus PS3; ring of ten copies; also called c-ring; c10; source: E. coli strain DK8, plasmid pTR-ASDS; purified as part of the whole ATP synthase (GDN, HisTrap HP, Superose 6); copies: 10
For orientation: stoichiometry N means the number of molecules, sites or subunits per partner or assembly. As to B2, the “stoichiometry N” value in data set [3] is 10.
